Experimental data from US20240101684A1 (AIMED BIO, published 2024).

Legend:
[1] = target: T1, monkey FGFR3 recombinant protein (90313-C02H, Sino Biological) (cynomolgus monkey, UniProt A0A2K5V1U5 23-376); assay: ELISA on cynoFGFR3
T1 construct: Bought recombinant antigen; also called cynomolgus monkey FGFR3; cyno FGFR3
T1 sequence: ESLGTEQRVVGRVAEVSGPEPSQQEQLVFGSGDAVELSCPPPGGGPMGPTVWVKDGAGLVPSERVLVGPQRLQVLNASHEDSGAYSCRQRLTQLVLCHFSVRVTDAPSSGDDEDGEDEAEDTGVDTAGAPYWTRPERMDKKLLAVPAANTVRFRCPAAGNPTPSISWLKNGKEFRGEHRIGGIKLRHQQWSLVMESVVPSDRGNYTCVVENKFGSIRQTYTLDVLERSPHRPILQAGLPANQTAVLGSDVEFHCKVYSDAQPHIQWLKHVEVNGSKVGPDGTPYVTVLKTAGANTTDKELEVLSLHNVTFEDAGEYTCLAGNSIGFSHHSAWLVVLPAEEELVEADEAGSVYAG
Procedure: (§1) Affinity ELISA was performed to determine the binding ability of the produced antibody (IgG) to the FGFR3 antigen. A 96-well plate (4° C., overnight) was coated with […] of FGFR3 antigen and blocked with 3% skim milk (PBS) (room temperature, 1 hour). Then, the plate was treated with previously serially diluted antibody samples in duplicate and triplicate, and reacted at room temperature for 1 hour. Then, the result was washed with PBST 2 to 3 times, treated with the HRP-conjugated anti-human Fab antibody diluted in skim milk (room temperature, 1 hour), and washed again with PBST, and a color reaction (TMB substrate) was performed. Then, O.D. was measured at 450 nm.
(§2) The binding ability of the produced antibody (IgG) to human FGFR3 IIIb (1264-FR-050, R&D), IIIc (766-FR-050, R&D), mouse FGFR3 (9089-FR, R&D), and monkey FGFR3 (90313-C02H, Sino Biological) antigens was determined in the same manner as above.
(§3) The epitope domain mapping performed above was also performed on the affinity matured antibody F309 #SSM236 (hereinafter referred to as AMB302 #1.2). […] The antibody was also found to have specific binding ability to human/cyno FGFR3 (FIG. 17).

[2] = target: T2, human FGFR3 IIIc recombinant protein (766-FR-050, R&D) (human, UniProt P22607 23-375); assay: ELISA on humanFGFR3-IIIc
T2 construct: Bought recombinant antigen; also called FGFR3-IIIc (Human)
T2 sequence (looked up): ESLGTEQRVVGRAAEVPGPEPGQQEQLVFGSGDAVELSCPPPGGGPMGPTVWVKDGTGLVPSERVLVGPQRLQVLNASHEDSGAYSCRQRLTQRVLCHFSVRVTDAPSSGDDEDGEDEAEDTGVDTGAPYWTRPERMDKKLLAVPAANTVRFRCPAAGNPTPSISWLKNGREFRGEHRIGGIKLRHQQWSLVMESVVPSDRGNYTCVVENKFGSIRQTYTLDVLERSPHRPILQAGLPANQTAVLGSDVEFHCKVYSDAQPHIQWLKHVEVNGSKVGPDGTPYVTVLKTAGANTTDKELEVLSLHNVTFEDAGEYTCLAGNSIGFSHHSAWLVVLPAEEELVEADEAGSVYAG
Procedure: as §1, §2, §3

[3] = target: T3, FGFR3 recombinant protein (isoform not given) (Homo sapiens (Human), UniProt P22607 23-375, limits assumed); assay: affinity ELISA on hFGFR3, lower left panel
T3 construct: also called FGFR3 antigen
T3 sequence: T2 sequence (looked up)
Procedure: as §1
The antigen affinity of the synthesized ADC sample (TOPOI-conjugated ADC) was determined by ELISA and the determination was performed in the same manner as the affinity ELISA performed in the present invention. […] In addition, the high purity physical properties of the prepared ADC were identified through SEC-HPLC analysis.

[4] = target: T4, FGFR3 Ig domain II with Fc tag (UniProt P22607 151-244); assay: FGFR3 Domain ELISA, AMB302#1.2, bar Domain#2
T4 construct: domain: FGFR3 Ig domain II; Recombinant domain made in mammalian cells; also called domain No. 2
T4 sequence: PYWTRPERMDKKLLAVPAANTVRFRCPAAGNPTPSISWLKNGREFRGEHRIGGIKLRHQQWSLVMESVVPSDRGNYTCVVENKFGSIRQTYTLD
Procedure: (§4) FGFR3 is composed of three domains, so each domain (FGFR3 Ig domain I, domain II, domain III) is attached with an Fc tag to analyze the FGFR3-binding domain of the discovered antibody, and produced and purified through a mammalian cell protein expression system (FIG. 9C). Analysis of the binding ability of the antibody to the purified domain was performed in the same manner as the ELISA described above. 1 μg/ml of an antigen was coated and treated with the antibody to induce a TMB color reaction. […] However, the epitope of the comparative antibody is included in domain No. 2, which was conducted according to the present invention. In addition, ligands of FGF1 and FGF9, and FGFR3 have been reported to bind to Ig domain II and domain III of FGFR3. Based on this, competition ELISA assay was conducted. […] This supports binding of F309 antibody to the aforementioned FGFR3 Ig domain I (FIG. 9A).
as §3

[5] = target: T5, Domain#3 (human, UniProt P22607); assay: FGFR3 Domain ELISA, AMB302#1.2, bar Domain#3
T5 construct: single domain fused to human IgG1 Fc; also called FGFR3 Domain 3; FGFR3 Ig domain III with Fc tag
T5 sequence (Fc fusion chain): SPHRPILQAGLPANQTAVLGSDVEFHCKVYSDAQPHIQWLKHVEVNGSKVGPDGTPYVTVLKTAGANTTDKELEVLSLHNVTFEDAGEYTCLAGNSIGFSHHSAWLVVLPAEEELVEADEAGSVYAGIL
Procedure: as §4, §3

[6] = target: T1, monkey FGFR3 recombinant protein …; assay: SPR (Biacore), antigen immobilised 92 RU, antibody injected
[7] = target: T2, human FGFR3 IIIc recombinant protein …; assay: SPR (Biacore), antigen immobilised 74.5 RU, antibody injected
[8] = target: T6, human FGFR3 IIIb recombinant protein (1264-FR-050, R&D) (human, UniProt P22607-2 23-377); assay: SPR (Biacore), antigen immobilised 276.2 RU, antibody injected
T6 construct: Bought recombinant antigen; also called rhFGFR3-IIIb; FGFR3-IIIb (Human)
T6 sequence (looked up): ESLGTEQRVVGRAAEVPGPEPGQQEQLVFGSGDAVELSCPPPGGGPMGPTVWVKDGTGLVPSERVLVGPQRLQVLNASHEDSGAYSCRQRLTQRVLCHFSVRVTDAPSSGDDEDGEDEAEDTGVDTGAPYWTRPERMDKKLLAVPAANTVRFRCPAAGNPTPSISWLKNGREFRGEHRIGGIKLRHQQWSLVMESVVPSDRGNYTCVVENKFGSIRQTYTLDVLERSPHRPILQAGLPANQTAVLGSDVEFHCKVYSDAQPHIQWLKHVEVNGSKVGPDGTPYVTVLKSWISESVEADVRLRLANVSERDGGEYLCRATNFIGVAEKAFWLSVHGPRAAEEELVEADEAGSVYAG

[9] = target: T6, human FGFR3 IIIb recombinant protein …; assay: direct-binding ELISA on rhFGFR3-IIIb, 2' screening, plate 1 (row head prints IC50)

B1: F309#SSM236 (antibody, V domains shown)
VH: EVQLLESGGGLVQPGGSLRLSCAASGFTFSSYDMSWVRQAPGKGLEWVSGIYSGDGSIYYADSVKGRFTISRDNSKNTLYLQMNSLRAEDTAVYYCAKDGPMNEESRFDYWGQGTLVTVSS
VL: QSVLTQPPSASGTPGQRVTISCSGSSSNIGNNYVSWYQQLPGTAPKLLIYADSKRPSGVPDRFSGSKSGTSASLAISGLRSEDEADYYCASWDYSLSGYVFGGGTKLTVL
notes: also called AMB302 #1.2; AMB302#1.2
[1]
  EC50 (read off the curve): ~0.3 nM
[2]
  EC50 (read off the curve): ~0.3 nM
[3]
  EC50 (read off the curve): ~0.4 nM
[4]
  binding result: no binding
[5]
  binding result: no binding
[6]
  Kd: 0.755 nM
[7]
  Kd: 0.309 nM
[8]
  Kd: 0.59 nM
[9]
  EC50: 0.753 nM
